Data published in US20260139033A1 (PRANA THERAPIES, published 2026).

Key:
[1] = target: T1, recombinant human TSLP (human, UniProt Q969D9 29-159); assay: SPR (Biacore 3000, CM5 chip, 25 C): complex captured via protein A, TSLP as analyte, 1:1 fit; column 'TSLP binding(pM)'
T1 construct: also called thymic stromal lymphopoietin
Protocol: (§1) SPR studies were carried out on a Biacore 3000 instrument with a CM5 chip at 25° C. The running buffer comprised 25 mM Hepes, pH 7.5, 150 mM NaCl, 0.5 mg/ml BSA, 0.005% P20. Antibodies were captured via protein A using approximately a 1/50 dilution of each antibody in the running buffer and a 2-minute contact time at a 10 μl/min flow rate. Protein A was immobilized on a CM5 chip via standard amine coupling chemistry in 10 mM acetate pH 4.5. Approximately 800 RU of each antibody was captured. The surfaces were regenerated via a 10 mM glycine pH 1.5 between cycles. Between assays the chip was regenerated with a 2-minute pulse of 100 mM Phosphoric acid. Prior to setting up multicycle kinetic analysis analyte concentration was determined spectrophotometrically using an extinction coefficient of 72,880 M⁻¹ cm⁻¹ for IL4R and 18450 M⁻¹ cm⁻¹ for the TSLP proteins respectively. Analyte samples were prepared by diluting stocks into running buffer to a final concentration of 500 nM for the IL-4R and 25 nM for TSLP followed by serially diluting with a 2-fold series with an association time of 2.5 minutes at a 50 μl/min flow rate. Dissociation data was collected for a period of 1600 seconds. Raw data was analyzed using the Scrubber2 (Biologic Software, AU) program using a double referencing procedure where compound signal is corrected to a blank surface and a buffer injection over the captured antibody surface. Kinetic data was analyzed by fitting to a simple 1:1 binding model. […] The candidates are further described in Table 3.

[2] = target: T1, recombinant human TSLP; assay: cell-based or functional assay
[3] = target: T2, IL-4R on human donor PBMC (B-cells) (human, UniProt P24394 26-825); assay: cell-based or functional assay
[4] = target: T1, recombinant human TSLP; assay: SPR; column 'SPR (Biophysical binding): TSLP (pM)'
Protocol: as §1

[5] = target: T2, IL-4R on human donor PBMC (B-cells); assay: cell-based or functional assay; remark: listed apart in the source

B1: Candidate-26: Light chain C-terminal TRAP: Dupilumab-YTE_Linker-GS4_TSLP TRAP 2 [2 x TRAP 2] (bispecific antibody, human IgG4 S228P, kappa)
heavy: EVQLVESGGGLEQPGGSLRLSCAGSGFTFRDYAMTWVRQAPGKGLEWVSSISGSGGNTYYADSVKGRFTISRDNSKNTLYLQMNSLRAEDTAVYYCAKDRLSITIRPRYYGLDVWGQGTTVTVSSASTKGPSVFPLAPCSRSTSESTAALGCLVKDYFPEPVTVSWNSGALTSGVHTFPAVLQSSGLYSLSSVVTVPSSSLGTKTYTCNVDHKPSNTKVDKRVESKYGPPCPPCPAPEFLGGPSVFLFPPKPKDTLYITREPEVTCVVVDVSQEDPEVQFNWYVDGVEVHNAKTKPREEQFNSTYRVVSVLTVLHQDWLNGKEYKCKVSNKGLPSSIEKTISKAKGQPREPQVYTLPPSQEEMTKNQVSLTCLVKGFYPSDIAVEWESNGQPENNYKTTPPVLDSDGSFFLYSRLTVDKSRWQEGNVFSCSVMHEALHNHYTQKSLSLSLG
light: DIVMTQSPLSLPVTPGEPASISCRSSQSLLYSIGYNYLDWYLQKSGQSPQLLIYLGSNRASGVPDRFSGSGSGTDFTLKISRVEAEDVGFYYCMQALQTPYTFGQGTKLEIKRTVAAPSVFIFPPSDEQLKSGTASVVCLLNNFYPREAKVQWKVDNALQSGNSQESVTEQDSKDSTYSLSSTLTLSKADYEKHKVYACEVTHQGLSSPVTKSFNRGECGGGGSGGGGSGGGGSGGGGSESGYAQNGDLEDAELDDYSFSCYSQLEVNGSQHSLTCAFEDPDVNITNLEFEICGALVEVKCLNFRKLQEIYFIETKKFLLIGKSNICVKVGEKSLTCKKIDLTTIVKPEAPFDLSVVYREGANDFVVTFNTSHLQKKYVKVLMHDVAYRQEKDENKWTHVNLSSTKLTLLQRKLQPAAMYEIKVRSIPDHYFKGFWSEWSPSYYFRTPEINNSSGEMDGGSGGSGGSGGSGGSGGSGGSGGSGGSGGSGGSGGSGGSGGSGGSGGSGGSGGSGGSGGSGAAEGVQIQIIYFNLETVQVTWNASKYSRTNLTFHYRFNGDEAYDQCTNYLLQEGHTSGCLLDAEQRDDILYFSIRNGTHPVFTASRWMVYYLKPSSPKHVRFSWHQDAVTVTCSDLSYGDLLYEVQYRSPFDTEWQSKQENTCNVTIEGLDAEKCYSFWVRVKAMEDVYGPDTYPSDWSEVTCWQRGEIRDACAETPTPPKPKLSK
notes: The chains here are built from the component entries
Question: For B1, which Kd [1] is on record?
Answer: 8.3 pM

Question: And the “IC50, inhibition of TSLP responses (TARC secretion) in human PBMCs” value [2]?
Answer: 7800 pM

Question: And the “IC50, CD23 upregulation on B cells of human PBMC in response to IL-4 (column 'Biological Assays: IL-4R (nM)')” value [3]?
Answer: > 200 nM

Question: And the Kd [4]?
Answer: 8.3 pM

B2: Candidate-21: TSLP TRAP 1_Linker-GS4_Dupilumab-YTE (bispecific antibody, human IgG4 S228P, kappa)
heavy: GAAEGVQIQIIYFNLETVQVTWNASKYSRTNLTFHYRFNGDEAYDQCTNYLLQEGHTSGCLLDAEQRDDILYFSIRNGTHPVFTASRWMVYYLKPSSPKHVRFSWHQDAVTVTCSDLSYGDLLYEVQYRSPFDTEWQSKQENTCNVTIEGLDAEKCYSFWVRVKAMEDVYGPDTYPSDWSEVTCWQRGEIRDACAETPTPPKPKLSKGGSGGSGGSGGSGGSGGSGGSGGSGGSGGSGGSGGSGGSGGSGGSGGSGGSGGSGGSGGSESGYAQNGDLEDAELDDYSFSCYSQLEVNGSQHSLTCAFEDPDVNITNLEFEICGALVEVKCLNFRKLQEIYFIETKKFLLIGKSNICVKVGEKSLTCKKIDLTTIVKPEAPFDLSVVYREGANDFVVTFNTSHLQKKYVKVLMHDVAYRQEKDENKWTHVNLSSTKLTLLQRKLQPAAMYEIKVRSIPDHYFKGFWSEWSPSYYFRTPEINNSSGEMDGGGGSGGGGSGGGGSGGGGSEVQLVESGGGLEQPGGSLRLSCAGSGFTFRDYAMTWVRQAPGKGLEWVSSISGSGGNTYYADSVKGRFTISRDNSKNTLYLQMNSLRAEDTAVYYCAKDRLSITIRPRYYGLDVWGQGTTVTVSSASTKGPSVFPLAPCSRSTSESTAALGCLVKDYFPEPVTVSWNSGALTSGVHTFPAVLQSSGLYSLSSVVTVPSSSLGTKTYTCNVDHKPSNTKVDKRVESKYGPPCPPCPAPEFLGGPSVFLFPPKPKDTLYITREPEVTCVVVDVSQEDPEVQFNWYVDGVEVHNAKTKPREEQFNSTYRVVSVLTVLHQDWLNGKEYKCKVSNKGLPSSIEKTISKAKGQPREPQVYTLPPSQEEMTKNQVSLTCLVKGFYPSDIAVEWESNGQPENNYKTTPPVLDSDGSFFLYSRLTVDKSRWQEGNVFSCSVMHEALHNHYTQKSLSLSLG
light: DIVMTQSPLSLPVTPGEPASISCRSSQSLLYSIGYNYLDWYLQKSGQSPQLLIYLGSNRASGVPDRFSGSGSGTDFTLKISRVEAEDVGFYYCMQALQTPYTFGQGTKLEIKRTVAAPSVFIFPPSDEQLKSGTASVVCLLNNFYPREAKVQWKVDNALQSGNSQESVTEQDSKDSTYSLSSTLTLSKADYEKHKVYACEVTHQGLSSPVTKSFNRGEC
notes: TRAP sits at the N-terminus of the heavy chain
Question: B2 was tested. Which Kd [1] did it give?
Answer: 20.8 pM

Question: What about the “IC50, PBMC assay in response to TSLP (TARC secretion)” value [2] of the same binder?
Answer: 2300 pM

Question: And the “IC50, IL-4 biological assay (CD23 upregulation in PBMCs)” value [5]?
Answer: > 200 nM

Question: What about the Kd [4] of the same binder?
Answer: 20.8 pM

B3: Candidate-22: TSLP TRAP 2_Linker-GS4_Dupilumab-YTE (bispecific antibody, human IgG4 S228P, kappa)
heavy: ESGYAQNGDLEDAELDDYSFSCYSQLEVNGSQHSLTCAFEDPDVNITNLEFEICGALVEVKCLNFRKLQEIYFIETKKFLLIGKSNICVKVGEKSLTCKKIDLTTIVKPEAPFDLSVVYREGANDFVVTFNTSHLQKKYVKVLMHDVAYRQEKDENKWTHVNLSSTKLTLLQRKLQPAAMYEIKVRSIPDHYFKGFWSEWSPSYYFRTPEINNSSGEMDGGSGGSGGSGGSGGSGGSGGSGGSGGSGGSGGSGGSGGSGGSGGSGGSGGSGGSGGSGGSGAAEGVQIQIIYFNLETVQVTWNASKYSRTNLTFHYRFNGDEAYDQCTNYLLQEGHTSGCLLDAEQRDDILYFSIRNGTHPVFTASRWMVYYLKPSSPKHVRFSWHQDAVTVTCSDLSYGDLLYEVQYRSPFDTEWQSKQENTCNVTIEGLDAEKCYSFWVRVKAMEDVYGPDTYPSDWSEVTCWQRGEIRDACAETPTPPKPKLSKGGGGSGGGGSGGGGSGGGGSEVQLVESGGGLEQPGGSLRLSCAGSGFTFRDYAMTWVRQAPGKGLEWVSSISGSGGNTYYADSVKGRFTISRDNSKNTLYLQMNSLRAEDTAVYYCAKDRLSITIRPRYYGLDVWGQGTTVTVSSASTKGPSVFPLAPCSRSTSESTAALGCLVKDYFPEPVTVSWNSGALTSGVHTFPAVLQSSGLYSLSSVVTVPSSSLGTKTYTCNVDHKPSNTKVDKRVESKYGPPCPPCPAPEFLGGPSVFLFPPKPKDTLYITREPEVTCVVVDVSQEDPEVQFNWYVDGVEVHNAKTKPREEQFNSTYRVVSVLTVLHQDWLNGKEYKCKVSNKGLPSSIEKTISKAKGQPREPQVYTLPPSQEEMTKNQVSLTCLVKGFYPSDIAVEWESNGQPENNYKTTPPVLDSDGSFFLYSRLTVDKSRWQEGNVFSCSVMHEALHNHYTQKSLSLSLG
light: B2 light
notes: The chains here are built from the component entries; TRAP sits at the N-terminus of the heavy chain
Question: B3 was tested. Which Kd [1] did it give?
Answer: 19 pM

Question: And the “IC50, PBMC assay in response to TSLP (TARC secretion)” value [2]?
Answer: 430 pM

Question: And the “IC50, IL-4 biological assay (CD23 upregulation in PBMCs)” value [5]?
Answer: > 200 nM

Question: What about the Kd [4] of the same binder?
Answer: 19 pM
